The record followed here is publication PMC8887137.

The test system of this data set is NSP12 (RNA-dependent RNA polymerase) (SARS-CoV-2). In words: filter binding. The settings on record: 20 mM Tris, 200 mM KCl, room temperature, 1 h; pH not stated.

In turn, “NSP12 eCLIP peak RNA, region 7431-7555 (hairpin)” came in with a dissociation constant (Kd) of 17 nM.
